Results: patent US10233249B2, “Antibodies and methods for treating estrogen receptor-associated diseases” (BEIJING SHENOGEN PHARMA GROUP LTD., priority 2013, dated 2019)
Changes are numbered by the printed parent chain. “Also recorded” adds a separate entry of the source.

Tests used:
[1] = target: T1, stable 3T3 cell lines induced to express human ER-α36 protein (Homo sapiens, UniProt P03372, I452L); assay: FACS analysis of binding to inducible 3T3 cell lines; details: mouse IgG2b isotype control
T1 construct: expressed in transfected cells
T1 sequence (P03372 1-310 isoform P03372-4 I279L): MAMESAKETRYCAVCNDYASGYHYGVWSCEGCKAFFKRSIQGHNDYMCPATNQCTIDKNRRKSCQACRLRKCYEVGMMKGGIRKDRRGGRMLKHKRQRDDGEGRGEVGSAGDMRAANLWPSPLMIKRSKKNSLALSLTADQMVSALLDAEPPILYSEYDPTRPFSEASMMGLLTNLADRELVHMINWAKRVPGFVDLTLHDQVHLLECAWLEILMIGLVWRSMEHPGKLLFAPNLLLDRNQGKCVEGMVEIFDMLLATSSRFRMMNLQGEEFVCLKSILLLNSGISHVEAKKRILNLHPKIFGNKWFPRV

[2] = target: T2, membrane bound ER-α36 protein in MCF-7 cells (Homo sapiens, UniProt P03372); assay: Immunofluorescence analysis of MCF-7 mammosphere; type: cell-based
T2 construct: endogenous in cells; host or cells: MCF7
T2 sequence (P03372 1-310 isoform P03372-4): T1 sequence (P03372 1-310 isoform P03372-4 I279L) with L279I
Procedure: The ability of SNGmB1 to detect membrane bound ER-α36 protein in MCF-7 cells was assessed using immunostaining. MCF-7 mammosphere was formed and immunostaining was performed by steps as follows:
1. MCF-7 cells were cultured in DMEM without phenol red for 2 days and stained with 7-aminoactinomycin D (7-AAD) followed by FACS sorting. The sorted cells were cultured in DMEM/F12 without phenol red medium (Gibo) with B27 (Invitrogen), EGF (BD Biosciences) and bFGF (BD Biosciences) for 6 days and the MCF-7 mammosphere was formed. 2. MCF-7 mammosphere was centrifuged at 1000 rpm for 4 min, and the supernatant was removed. 3. The mammosphere was washed with 500 μl PBS and was transferred to a 1.5 ml EP tube before centrifugation at 1000 rpm for 4 min, and the supernatant was discarded. 4. The precipitate was fixed with 500 μl paraformaldehyde (4%) for 20 min (or overnight), and was centrifuged at 1000 rpm for 4 min to move the supernatant. 5. The precipitate was washed with 500 μl PBS and centrifuged at 1000 rpm for 4 min, and the supernatant was discarded, wash three times using PBS. 6. The supernatant was removed and the precipitate was incubated with 50 μl goat serum blocking solution at 37° C. for 30 min; after centrifugation at 1000 rpm for 4 min, the supernatant was discarded. 7. […] The mammospheres was transferred to small observation dish, and stored at 4° C. to be detected.

[3] = test system: K562 cells; assay: Internalization analysis by surface fluorescence quenching (FACS); type: cell-based, human; details: 37° C., peak by 24 hours
Procedure: The % internalization=(Qn-Qo)/(Nn-Qo); Qn=MFI (Mean Fluorescence Intensity) for a sample at a specific time point, after quench; Nn=MFI for a sample taken at a specific time point, no quench; Qo=MFI for sample incubated only on ice at 0 hour, after quench.
As the development of antibody drug conjugate relies on the carrier antibody to be internalized to deliver the chemotherapeutic agent into the tumor cells, the ability of SNGmB1 being internalized by K-562 cells was also assessed.
K562 cells were first cultured in normal IMDM medium for 24 hours. On the second day, the cells are collected by centrifugation and washed once with warm PBS, followed by resuspending into culture medium with IMDM without phenol red (Gibco) supplemented with 2.5% charcoal-stripped FBS (Gibo) without phenol red. After culturing for 48 hours, the cells were collected and centrifuged for 5 minutes at 1000 rpm. The cells were then incubated with AlexaFluro488-labelled anti-ER-α36 antibody SNGmB1 37° C. for different time (1, 2, 4, 6, 24 hours) to allow internalization to occur. The internalization was stopped by putting the cells on ice. Antibody internalization analysis of SNGmB1 by K562 cells was performed by surface fluorescence quenching and measured by MFI as detected by FACS. An anti-anti-AlexaFluro488 antibody was used to quench the AlexaFluro488-labeled SNGmB1 antibody bound on the K562 cell surface.

[4] = target: T3, ER-α36 (Homo sapiens, UniProt P03372); assay: Biacore binding affinity of chimeric and humanized antibodies (Example 9)
T3 sequence (P03372 284-310 isoform P03372-4): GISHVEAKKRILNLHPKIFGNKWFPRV
Procedure: The humanized antibodies were purified and characterized using ELISA and Biacore for binding analysis.
The humanized antibodies were tested for their binding affinity to ER-α36.

[5] = target: T3, ER-α36; assay: ELISA binding specificity of SNGmB1; design: made in house; host or cells: E. coli BL21 (DE3); details: plate coated at 1 μg/ml, antibody 0.004-10 μg/ml
Procedure: The binding specificity of SNGmB1 was assessed using ELISA assay. Five different proteins were used to coat the assay plate at 1 μg/ml. After extensive blocking, the SNGmB1 antibody of different concentrations (10, 2, 0.4, 0.08 and 0.016, 0.004 μg/ml) was added to the assay plate and incubated for 1.5 hours, followed by detection of complex formation using HRP (horse radish peroxidase) labeled anti-mouse IgG Fc (Invitrogen). An example of the data was shown below in FIG. 3. […] The key epitope residues in ER-α36 F domain for SNGmB1 binding have been mapped using both PepScan and Alanine Scan (see Example 5).

B1: SNGmB1: mouse monoclonal anti-ER-α36 antibody (mIgG2b), light chain SEQ ID NO: 16, heavy chain SEQ ID NO: 18 (antibody, listed as Mus musculus)
heavy: QAYLQQSGAELVRPGASVKMSCKASGYTFTSHNMHWIKQTPRQGLEWIGAIHPVNGDTAYNQKFKGKATLTVDKSSSTAYLQLSSLTSEESAVYFCAREGYGSVDYWGQGTTLTVSSAKTTPPSVYPLAPGCGDTTGSSVTLGCLVKGYFPESVTVTWNSGSLSSSVHTFPALLQSGLYTMSSSVTVPSSTWPSQTVTCSVAHPASSTTVDKKLEPSGPISTINPCPPCKECHKCPAPNLEGGPSVFIFPPNIKDVLMISLTPKVTCVVVDVSEDDPDVQISWFVNNVEVHTAQTQTHREDYNSTIRVVSTLPIQHQDWMSGKEFKCKVNNKDLPSPIERTISKIKGLVRAPQVYILPPPAEQLSRKDVSLTCLVVGFNPGDISVEWTSNGHTEENYKDTAPVLDSDGSYFIYSKLNMKTSKWEKTDSFSCNVRHEGLKNYYLKKTISRSPGK
light: ETTVTQSPASLSMTIGEKVTIRCITSTDIDDDMNWYRKKPGQPPKLLISEGNTLRPGVPSRFSSSGYGTDFVFTIENMLSEDVADYYCLQSDNLPLTFGAGTKLELKRADAAPTVSIFPPSSEQLTSGGASVVCFLNNFYPKDINVKWKIDGSERQNGVLNSWTDQDSKDSTYSMSSTLTLTKDEYERHNSYTCEATHKTSTSPIVKSFNRNEC
binding to 3T3 cell line induced to express human ER-α36 (FACS) [1]: specifically bound
immunostaining of membrane bound ER-α36 on MCF-7 mammospheres [2]: stained the MCF-7 mammospheres in a dose-dependent manner; also recorded: can detect membrane bound ER-α36 on MCF7
percentage of internalized antibody (of the bound antibody) [3]: ~75%
Ka ([4]; listed as SNGmB1-20110709(IgG2b)): 2.12e+06 M⁻¹ s⁻¹
Ka ([4]; listed as SNGmB1-20111117(IgG2b)): 1.76e+06 M⁻¹ s⁻¹
binding to 27-amino acid peptide derived from the F domain of ER-α36 ("peptide") [5]: bind to
